# Results reported in PMC6702220 (Communications Biology, 2019).
# Molecular target: the molecule itself
# Assay: crystal structure; hanging drop, 22 °C; 5 mg/ml PlsX, 1 mM 1-oxohexadecylphosphoramidic acid, 0.08 M Tris-HCl pH 8.0, 0.16 M Li2SO4, 21% PEG 4000, 0.012 mM CYMAL 7, 5% t-butanol; 2.30 Å; two subunits in the asymmetric unit
protein,measurement,value
"Bacillus subtilis phosphate acyltransferase PlsX (enzyme, UniProt P71018 1-333, looked up, Phosphate acyltransferase PlsX, Bacillus subtilis; plsX gene amplified from genomic DNA and inserted into pET28a between NcoI and XhoI; Crystallised with the product analog 1-oxohexadecylphosphoramidic acid (palmitoyl phosphoramide), which was not found in the solved structure; also called B. subtilis PlsX; recombinant PlsX; source: E. coli C43 (DE3), purified (HisTrap HP, gel filtration on …)) MRIAVDAMGGDHAPKAVIDGVIKGIEAFDDLHITLVGDKTTIESHLTTTSDRITVLHADEVIEPTDEPVRAVRRKKNSSMVLMAQEVAENRADACISAGNTGALMTAGLFIVGRIKGIDRPALAPTLPTVSGDGFLLLDVGANVDAKPEHLVQYAIMGSVYSQQVRGVTSPRVGLLNVGTEDKKGNELTKQTFQILKETANINFIGNVEARDLLDDVADVVVTDGFTGNVTLKTLEGSALSIFKMMRDVMTSTLTSKLAAAVLKPKLKEMKMKMEYSNYGGASLFGLKAPVIKAHGSSDSNAVFHAIRQAREMVSQNVAALIQEEVKEEKTDE",stoichiometry N,2
